Assay results as given in patent US20230295348A1 (NOVIMMUNE, published 2023).

T1: recombinant Human carcinoembryonic antigen (human, UniProt P06731 35-685, limits assumed)
T1 construct: Irrelevant control protein of the ELISA, biotinylated and captured on streptavidin plates; also called irrelevant protein; CEA
T1 sequence (looked up): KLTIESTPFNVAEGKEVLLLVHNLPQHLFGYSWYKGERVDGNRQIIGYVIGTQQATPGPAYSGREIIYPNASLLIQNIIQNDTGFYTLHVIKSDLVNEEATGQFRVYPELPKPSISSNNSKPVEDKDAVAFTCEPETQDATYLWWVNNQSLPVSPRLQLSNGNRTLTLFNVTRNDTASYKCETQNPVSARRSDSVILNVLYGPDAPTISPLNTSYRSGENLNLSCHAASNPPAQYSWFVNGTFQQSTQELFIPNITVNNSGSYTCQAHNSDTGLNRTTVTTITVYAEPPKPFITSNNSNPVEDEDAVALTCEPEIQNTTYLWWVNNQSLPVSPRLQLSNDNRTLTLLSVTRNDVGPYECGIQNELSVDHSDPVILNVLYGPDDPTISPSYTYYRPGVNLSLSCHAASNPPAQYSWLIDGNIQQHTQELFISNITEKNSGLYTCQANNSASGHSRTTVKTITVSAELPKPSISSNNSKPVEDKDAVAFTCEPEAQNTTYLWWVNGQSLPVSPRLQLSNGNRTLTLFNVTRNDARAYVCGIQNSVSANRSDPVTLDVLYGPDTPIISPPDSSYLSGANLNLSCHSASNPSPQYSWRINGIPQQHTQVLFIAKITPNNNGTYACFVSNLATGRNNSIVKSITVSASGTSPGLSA

T2: human recombinant IL-2Rβ (human, UniProt P14784 27-239, limits assumed)
T2 construct: Biotinylated and captured on streptavidin plates in the ELISA; also called IL-2Rb; IL2Rb
T2 sequence (looked up): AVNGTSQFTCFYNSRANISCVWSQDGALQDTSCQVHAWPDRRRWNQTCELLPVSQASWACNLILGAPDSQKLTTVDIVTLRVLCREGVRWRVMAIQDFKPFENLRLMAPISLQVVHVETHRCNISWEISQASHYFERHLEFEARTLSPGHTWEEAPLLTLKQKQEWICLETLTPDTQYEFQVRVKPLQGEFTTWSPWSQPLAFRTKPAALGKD

T3: human recombinant IL-2Rγ (human, UniProt P31785 23-262, limits assumed)
T3 construct: Biotinylated and captured on streptavidin plates in the ELISA; also called IL-2Rg; IL2Rg
T3 sequence (looked up): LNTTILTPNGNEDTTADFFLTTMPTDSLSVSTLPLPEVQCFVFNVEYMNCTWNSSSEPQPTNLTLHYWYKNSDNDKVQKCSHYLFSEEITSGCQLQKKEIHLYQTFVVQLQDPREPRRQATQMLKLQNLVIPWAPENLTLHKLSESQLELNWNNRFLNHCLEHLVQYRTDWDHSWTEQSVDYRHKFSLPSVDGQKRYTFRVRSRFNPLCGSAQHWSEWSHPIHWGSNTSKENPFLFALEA

B1: P1A3×P2C4 (bispecific antibody, V domains shown)
VH 1: QVQLQQWGAGLLKPSETLSLTCAVYGGSFSGYYWSWIRQPPGKGLEWIGEINHSGSTNYNPSLKSRATISVDTSKNQFSLKLSSVTAADTAVYYCATSPGGYSGGYFQHWGQGTLVTVSS
VL 1: not shown
VH 2: EVQLVQSGAEVKKPGSSVKVSCKASGYTFTNYYMHWVRQAPGQGLEWMGAIMPSRGGTSYPQKFQGRVTMTGDTSTSTVYMELSSLRSEDTAVYYCARGEYYYDSSGYYYWGQGTLVTVSS
VL 2: QSALTQPASVSGSPGQSIAISCTGTSSDIGHYDFVSWYQQHPGTAPKLIIYDINNRPSGISNRFSGSKSDNMASLTISGLQPEDEADYYCSAYTSSDTLVFGGGTKLT
notes: anti-IL-2Rβ (P2C4) in the knob arm; also called anti-IL-2Rβ×anti-IL-2Rγ bsAb; IL-2Rβ×IL-2Rγ KiH bsAb
B2: AL1N2-28 (bispecific antibody, human IgG1, kappa, lambda, L234A L235A)
heavy: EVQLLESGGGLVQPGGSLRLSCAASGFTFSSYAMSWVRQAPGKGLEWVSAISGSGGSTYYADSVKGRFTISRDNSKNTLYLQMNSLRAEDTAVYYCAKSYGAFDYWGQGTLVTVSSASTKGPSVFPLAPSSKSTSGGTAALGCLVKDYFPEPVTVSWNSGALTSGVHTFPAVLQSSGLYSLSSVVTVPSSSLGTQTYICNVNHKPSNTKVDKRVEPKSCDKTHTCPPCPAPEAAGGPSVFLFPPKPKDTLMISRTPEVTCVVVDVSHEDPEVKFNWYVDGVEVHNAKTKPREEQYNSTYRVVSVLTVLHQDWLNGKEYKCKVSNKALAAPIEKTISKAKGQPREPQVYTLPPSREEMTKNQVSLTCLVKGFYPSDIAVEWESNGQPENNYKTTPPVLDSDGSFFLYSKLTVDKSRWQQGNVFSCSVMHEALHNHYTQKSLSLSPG
light 1: not shown
light 2: SYVLTQPPSVSVAPGKTARITCGGNTIGSTVVHWYQQKPGQAPVLVIYFDDARPSGIPERFSGSNSGNTATLTISRVEAGDEADYYCQVWDSFGLSLAPVFGGGTKLTVLGQPKAAPSVTLFPPSSEELQANKATLVCLISDFYPGAVTVAWKADSSPVKAGVETTTPSKQSNNKYAASSYLSLTPEQWKSHRSYSCQVTHEGSTVEKTVAPTECS
notes: κλ-body: common heavy chain, kappa anti-IL2Rβ light chain (AL1), lambda anti-HER2 light chain (N2-28); also called AL1N2-28/N
B3: AL3N2-28 (bispecific antibody, human IgG1, kappa, lambda, L234A L235A)
heavy: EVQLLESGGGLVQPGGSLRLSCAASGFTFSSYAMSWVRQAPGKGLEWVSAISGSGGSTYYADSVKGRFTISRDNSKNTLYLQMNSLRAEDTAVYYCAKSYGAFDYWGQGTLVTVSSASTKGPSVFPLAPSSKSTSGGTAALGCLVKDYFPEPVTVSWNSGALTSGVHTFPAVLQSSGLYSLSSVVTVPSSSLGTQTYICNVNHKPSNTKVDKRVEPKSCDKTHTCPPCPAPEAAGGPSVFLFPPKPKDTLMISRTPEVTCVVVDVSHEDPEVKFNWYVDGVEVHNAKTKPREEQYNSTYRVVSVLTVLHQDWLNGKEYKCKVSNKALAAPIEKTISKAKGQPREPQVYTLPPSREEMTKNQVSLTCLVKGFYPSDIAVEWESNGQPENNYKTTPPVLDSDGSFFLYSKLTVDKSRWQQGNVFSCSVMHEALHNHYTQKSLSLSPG
light 1: not shown
light 2: B2 light 2
notes: κλ-body: common heavy chain, kappa anti-IL2Rβ light chain (AL3), lambda anti-HER2 light chain (N2-28); also called AL3N2-28/N
B4: AL2N2-28 (bispecific antibody, human IgG1, kappa, lambda, L234A L235A)
heavy: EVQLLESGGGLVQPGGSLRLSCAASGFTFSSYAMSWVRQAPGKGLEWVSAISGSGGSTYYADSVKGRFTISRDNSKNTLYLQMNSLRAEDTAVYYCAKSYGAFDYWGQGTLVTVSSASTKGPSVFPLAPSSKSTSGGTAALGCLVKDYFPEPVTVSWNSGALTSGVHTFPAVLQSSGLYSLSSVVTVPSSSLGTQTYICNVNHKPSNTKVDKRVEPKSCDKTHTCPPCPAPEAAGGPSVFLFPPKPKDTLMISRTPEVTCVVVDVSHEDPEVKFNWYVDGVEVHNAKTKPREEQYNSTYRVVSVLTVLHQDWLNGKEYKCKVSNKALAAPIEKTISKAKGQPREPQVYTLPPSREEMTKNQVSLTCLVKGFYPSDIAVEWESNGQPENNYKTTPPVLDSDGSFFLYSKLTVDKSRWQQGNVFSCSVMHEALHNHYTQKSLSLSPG
light 1: not shown
light 2: B2 light 2
notes: κλ-body: common heavy chain, kappa anti-IL2Rβ light chain (AL2), lambda anti-HER2 light chain (N2-28); also called AL2N2-28/N
B5: AL4N2-28 (bispecific antibody, human IgG1, kappa, lambda, L234A L235A)
heavy: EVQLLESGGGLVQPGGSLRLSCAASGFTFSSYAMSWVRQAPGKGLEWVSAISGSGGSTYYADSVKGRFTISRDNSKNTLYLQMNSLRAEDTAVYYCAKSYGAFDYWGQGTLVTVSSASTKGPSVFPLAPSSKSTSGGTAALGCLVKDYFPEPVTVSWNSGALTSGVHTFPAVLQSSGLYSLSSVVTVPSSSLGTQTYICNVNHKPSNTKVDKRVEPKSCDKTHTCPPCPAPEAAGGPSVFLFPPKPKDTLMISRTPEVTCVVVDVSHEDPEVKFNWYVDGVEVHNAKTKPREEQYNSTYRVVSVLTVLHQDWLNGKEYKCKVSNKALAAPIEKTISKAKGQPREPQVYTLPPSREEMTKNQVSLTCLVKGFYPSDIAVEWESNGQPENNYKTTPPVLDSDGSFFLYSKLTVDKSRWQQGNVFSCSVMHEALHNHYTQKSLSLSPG
light 1: DIQMTQSPSSLSASVGDRVTITCRASQSIDEYLNWYQQKPGKAPKLLIYEASKLQSGVPSRFSGSGSGTDFTLTISSLQPEDFATYYCQQDGAMDTYATFGQGTKVEIKRTVAAPSVFIFPPSDEQLKSGTASVVCLLNNFYPREAKVQWKVDNALQSGNSQESVTEQDSKDSTYSLSSTLTLSKADYEKHKVYACEVTHQGLSSPVTKSFNRGEC
light 2: B2 light 2
notes: κλ-body: common heavy chain, kappa anti-IL2Rβ light chain (AL4), lambda anti-HER2 light chain (N2-28); also called AL4N2-28/N
B6: AL5N2-28 (bispecific antibody, human IgG1, kappa, lambda, L234A L235A)
heavy: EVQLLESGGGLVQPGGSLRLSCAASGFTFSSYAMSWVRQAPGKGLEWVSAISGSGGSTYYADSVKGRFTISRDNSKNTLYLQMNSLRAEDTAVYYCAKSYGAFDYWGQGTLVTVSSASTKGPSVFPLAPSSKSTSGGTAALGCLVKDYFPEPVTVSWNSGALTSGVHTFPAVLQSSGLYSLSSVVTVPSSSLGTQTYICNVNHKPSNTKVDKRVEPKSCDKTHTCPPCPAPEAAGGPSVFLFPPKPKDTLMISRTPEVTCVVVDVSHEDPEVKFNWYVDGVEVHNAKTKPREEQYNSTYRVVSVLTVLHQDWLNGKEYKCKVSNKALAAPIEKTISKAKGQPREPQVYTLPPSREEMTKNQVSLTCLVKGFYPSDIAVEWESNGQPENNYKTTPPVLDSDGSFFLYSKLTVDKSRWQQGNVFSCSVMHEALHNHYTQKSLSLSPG
light 1: not shown
light 2: B2 light 2
notes: κλ-body: common heavy chain, kappa anti-IL2Rβ light chain (AL5), lambda anti-HER2 light chain (N2-28); also called AL5N2-28/N
B7: AL4O30 (bispecific antibody, human IgG1, kappa, lambda, L234A L235A)
heavy: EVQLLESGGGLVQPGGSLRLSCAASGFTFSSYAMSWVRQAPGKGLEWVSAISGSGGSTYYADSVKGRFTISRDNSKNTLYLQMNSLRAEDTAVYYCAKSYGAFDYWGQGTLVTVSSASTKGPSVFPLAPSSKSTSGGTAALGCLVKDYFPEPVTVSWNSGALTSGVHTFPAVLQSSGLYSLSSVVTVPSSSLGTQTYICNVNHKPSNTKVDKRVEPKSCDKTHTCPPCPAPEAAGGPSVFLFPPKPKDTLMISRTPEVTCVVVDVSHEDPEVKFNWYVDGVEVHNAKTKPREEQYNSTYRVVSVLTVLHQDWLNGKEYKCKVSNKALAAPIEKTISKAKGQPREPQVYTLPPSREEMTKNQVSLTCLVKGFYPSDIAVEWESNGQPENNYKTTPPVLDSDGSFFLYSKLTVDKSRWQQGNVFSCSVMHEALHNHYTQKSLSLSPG
light 1: B5 light 1
light 2: not shown
notes: κλ-body: common heavy chain, kappa anti-IL2Rβ light chain (AL4), lambda anti-MSLN light chain (O30); also called AL4O30/N
B8: AL4O35 (bispecific antibody, human IgG1, kappa, lambda, L234A L235A)
heavy: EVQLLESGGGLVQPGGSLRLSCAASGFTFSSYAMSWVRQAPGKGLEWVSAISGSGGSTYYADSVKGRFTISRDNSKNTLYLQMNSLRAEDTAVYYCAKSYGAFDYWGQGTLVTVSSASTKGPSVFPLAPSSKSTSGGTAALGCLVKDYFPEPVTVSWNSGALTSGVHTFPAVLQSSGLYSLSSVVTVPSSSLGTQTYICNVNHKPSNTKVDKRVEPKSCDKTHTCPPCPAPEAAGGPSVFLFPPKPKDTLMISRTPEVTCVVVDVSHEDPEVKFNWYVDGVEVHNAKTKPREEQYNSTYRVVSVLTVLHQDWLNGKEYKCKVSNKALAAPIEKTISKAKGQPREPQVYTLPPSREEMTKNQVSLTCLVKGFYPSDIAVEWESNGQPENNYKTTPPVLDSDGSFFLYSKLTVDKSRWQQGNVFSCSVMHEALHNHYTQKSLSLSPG
light 1: B5 light 1
light 2: QPVLTQPVSLSASPGASVSLTCTLRSDIRVRDYRIFWYQQKPGSPPQYLLRYKTDSDKQQGSGVPSRFSGSKDASANAGILLISGLQSEDEADYYCMIWHRTTGTSLVFGGGTKLTVLGQPKAAPSVTLFPPSSEELQANKATLVCLISDFYPGAVTVAWKADSSPVKAGVETTTPSKQSNNKYAASSYLSLTPEQWKSHRSYSCQVTHEGSTVEKTVAPTECS
notes: κλ-body: common heavy chain, kappa anti-IL2Rβ light chain (AL4), lambda anti-MSLN light chain (O35); also called AL4O35/N
B9: AL4O38 (bispecific antibody, human IgG1, kappa, lambda, L234A L235A)
heavy: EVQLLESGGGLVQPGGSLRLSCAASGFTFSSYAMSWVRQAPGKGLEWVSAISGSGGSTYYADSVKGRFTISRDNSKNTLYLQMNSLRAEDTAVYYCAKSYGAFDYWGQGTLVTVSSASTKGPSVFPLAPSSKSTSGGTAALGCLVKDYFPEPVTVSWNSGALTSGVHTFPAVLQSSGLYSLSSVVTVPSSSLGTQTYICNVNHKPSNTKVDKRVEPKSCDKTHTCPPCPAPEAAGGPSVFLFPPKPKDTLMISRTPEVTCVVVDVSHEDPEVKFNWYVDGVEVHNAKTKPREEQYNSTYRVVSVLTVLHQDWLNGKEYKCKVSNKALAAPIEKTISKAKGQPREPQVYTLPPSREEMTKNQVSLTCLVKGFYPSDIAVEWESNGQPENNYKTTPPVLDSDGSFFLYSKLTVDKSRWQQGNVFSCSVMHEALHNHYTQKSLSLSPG
light 1: B5 light 1
light 2: QPVLTQPASLSASPGASASLTCTLRSGINVRDYRIFWYQQKPGSPPQYLLRYKSASDKQQGSGVPSRFSGSKDASANAGILLISGLQSEDEADYYCMIWHHDSEGHAFVFGGGTKLTVLGQPKAAPSVTLFPPSSEELQANKATLVCLISDFYPGAVTVAWKADSSPVKAGVETTTPSKQSNNKYAASSYLSLTPEQWKSHRSYSCQVTHEGSTVEKTVAPTECS
notes: κλ-body: common heavy chain, kappa anti-IL2Rβ light chain (AL4), lambda anti-MSLN light chain (O38); also called AL4O38/N
B10: AL4O41 (bispecific antibody, human IgG1, kappa, lambda, L234A L235A)
heavy: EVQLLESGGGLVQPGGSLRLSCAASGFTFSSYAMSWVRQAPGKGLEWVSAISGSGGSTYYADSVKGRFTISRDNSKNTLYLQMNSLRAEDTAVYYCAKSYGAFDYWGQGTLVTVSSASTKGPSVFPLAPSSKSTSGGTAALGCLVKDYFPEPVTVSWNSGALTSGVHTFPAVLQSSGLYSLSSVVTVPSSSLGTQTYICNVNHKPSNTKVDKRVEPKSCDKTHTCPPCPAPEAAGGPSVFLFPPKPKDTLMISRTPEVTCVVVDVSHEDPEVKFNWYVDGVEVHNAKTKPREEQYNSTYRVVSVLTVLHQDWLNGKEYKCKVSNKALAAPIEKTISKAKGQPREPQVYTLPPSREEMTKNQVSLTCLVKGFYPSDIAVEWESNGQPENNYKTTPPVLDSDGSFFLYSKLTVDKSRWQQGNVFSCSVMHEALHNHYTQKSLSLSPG
light 1: B5 light 1
light 2: SYVLTQPPSVSVAPGKTARITCGGNKIGHRAVHWYQQKPGQAPVLVIYYTYERPSGIPERFSGSNSGNTATLTISRVEAGDEADYYCQVWDWYSEGGVVFGGGTKLTVLGQPKAAPSVTLFPPSSEELQANKATLVCLISDFYPGAVTVAWKADSSPVKAGVETTTPSKQSNNKYAASSYLSLTPEQWKSHRSYSCQVTHEGSTVEKTVAPTECS
notes: κλ-body: common heavy chain, kappa anti-IL2Rβ light chain (AL4), lambda anti-MSLN light chain (O41); also called AL4O41/N

What follows are binders tested against T1, recombinant Human carcinoembryonic … (assay: direct ELISA, biotinylated recombinant protein on streptavidin plates).
B1: no binding.

Each binder was assayed against T2, human recombinant IL-2Rβ in the same assay as above.
B2: binds.
B3: binds.
B4: binds.
B5: binds.
B6: binds.
B7: binds.
B8: binds.
B9: binds.
B10: binds.
B1: binds.

What follows are binders tested against T3, human recombinant IL-2Rγ in the same assay as above.
B1: binds.

The binders below were run against T4, human recombinant HER2 (human, UniProt P04626 23-652) in the same assay as above.
T4 construct: Biotinylated and captured on streptavidin plates in the ELISA; also called human epidermal growth factor receptor 2
B2: binds.
B3: binds.
B4: binds.
B5: binds.
B6: binds.
